*: point of attachment. TAMRA = 5(6)-carboxytetramethylrhodamine amide on Lys NZ; Butanoyl(4-maleimido) = O=C1C=CC(=O)N1CCCC(=O)*; NBD = O=[N+]([O-])c1ccc(*)c2nonc12
Key:
[1] = biological target: the molecule itself; test: self-association of the dye-labelled peptide into a tetrameric bundle; STORM imaging of the rods
Protocol: With these rigid-rod molecules, the local amino acid sequence along the rods is determined via computational design. With this specified sequence, robust bundle physical assembly, and subsequent covalent polymer formation, one can display desired functionality locally within the polymer chain. High-resolution fluorescence microscopy provides the tool for observation of rigid-rod polymers synthesized with fluorophores attached to specific lysine side chains. Rods with targeted lengths of ~50 nm were first assembled using the same parent peptides as described in FIG. 33 with the short rod termini consisting of bundles displaying thiol functionality (FIG. 33A, more description in Methods). The maleimide-terminated peptides used in the short rod syntheses were functionalized with a desired fluorescent dye (rhodamine; nitrobenzofurazan (NBD); see FIG. 35A). […] After short rod synthesis with desired dye incorporation, separate populations of short red rods and short green rods were mixed together along with individual bundles with maleimide termini and no dye (FIG. 33A and FIG. 35A) in order to link the short, dyed rods together into longer rigid-rod chains. […] The sub-optical wavelength resolution of the STORM technique (stochastic optical reconstruction microscopy) allows clear observation of the ~50 nm long, individual rod segments within final, longer rods. […]

[2] = biological target: the molecule itself; test: self-association of the peptide into a homotetrameric coiled coil bundle; TEM, cryoTEM and SANS of the linked bundle chains
Protocol: Transmission Electron Microscopy (TEM): Carbon-coated 200 mesh copper grids (CF200-Cu, Electron Microscopy Sciences, Inc.) were freshly treated by glow discharge using a plasma cleaner (PDC-32G, Harrica Plasma, Inc.) at low level for 20 seconds. Then, 4 µL sample solution was dropped on the grid. After 1 min, the remaining liquid was blotted from the edge of the grid using filter paper. The grid was allowed to air-dry for 10 min before TEM observation on FEI TALOS™ F200C microscope. For negative staining, 6 µL aqueous solution of phosphotungstic acid (2 w/v %, pH 6) was applied to the dried grid and incubated for 15-30 seconds. Then the grid was blotted with filter paper. The stained grid was allowed to sit for 10 min before TEM observation.

Q: Does {Butanoyl(4-maleimido)}-DEKIKNMADQIKHMAWMIDRMAEK(TAMRA)IDREA-NH2 (not fully specified (residue 1), also called red dye peptide) [Peptide 4 (SEQ ID NO: 3, maleimide N-terminus, tetramethylrhodamine dye on a lysine side chain)] bind [1]?
A: binds

B1: Peptide 2 (bundle-forming peptide with N-terminal cysteine, SEQ ID NO: 1) (peptide)
peptide: H-CDEEIRRMAEEIRQMAERIQQMAEQIQQEA-NH2
modifications: not fully specified
notes: Four copies associate non-covalently into an antiparallel homotetrameric coiled coil bundle; also called 4459a-C; thiol-containing peptide
Q: Does B1 bind [2]?
A: binds

B2: Peptide 1 (maleimide-functionalized bundle-forming peptide, SEQ ID NO: 3) (peptide)
peptide: {Butanoyl(4-maleimido)}-DEKIKNMADQIKHMAWMIDRMAEKIDREA-NH2
modifications: not fully specified (residue 1)
notes: Four copies associate non-covalently into an antiparallel homotetrameric coiled coil bundle; also called P622-A6-1; maleimide-containing peptide
Q: Does B2 bind [2]?
A: binds

Q: Does {Butanoyl(4-maleimido)}-DEKIKNMADQIKHMAWMIDRMAEK(NBD)IDREA-NH2 (not fully specified (residue 1), also called green dye peptide) [Peptide 3 (SEQ ID NO: 3, maleimide N-terminus, nitrobenzofurazan dye on a lysine side chain)] bind [1]?
A: binds

From patent publication US12545707 (UNIVERSITY OF DELAWARE, dated 2026)
